Measurements reported in patent publication US20230218739A1.
Where “and” joins values, the source holds several entries; their conditions need not be identical. Equal values may be shown once. Read-outs that look alike come from different tables or passages of the source.

Legend:
[1] = molecular target: Influenza HA-Trimer (exemplary fusion protein comprising HA (Influenza A virus A/California/07/2009-pdm (H1N1))); experiment: biolayer interferometry (Octet), […]
[2] = molecular target: recombinant HA produced from insect cells; experiment: ForteBio Octet molecular interaction analysis
[3] = molecular target: Rabies G-Trimer (CTN-1 Strain) (ectodomain of rabies CTN-1 strain G protein fused in frame to Trimer-Tag) (Rabies virus CTN-1 strain)
[4] = molecular target: Rabies G-Trimer (CTN-1 Strain) (ectodomain of rabies CTN-1 strain G protein fused in frame to Trimer-Tag) (Rabies virus CTN-1 strain); remark: listed apart in the source
[5] = molecular target: Rabies G-Trimer (CTN-1 Strain) (ectodomain of rabies CTN-1 strain G protein fused in frame to Trimer-Tag) (Rabies virus CTN-1 strain); remark: listed apart in the source

Substance	Kd [1] [nM]	Kd [2] [nM]	p75 Competitive titer IC50 GMT [3]	CTN-1 Specific IgG titer (End point) [4]	p75 Competitive titer IC50 GMT [5]
CR6261 (broadly neutralizing anti-HA antibody, ACRO Biosystems)	< 0.001	3.8	–	–	–
HDCV	–	–	87	57 and 33	30 and 25
